{
  "source": "patent US11839219B2",
  "about": "“BVP10 protein for controlling tetranychid mites and use thereof” (priority 2021, dated 2023)",
  "key": {"Tetranychus urticae": {"tested_on": "Tetranychus urticae", "assay": "Slide dipping method, miticidal activity against Tetranychus urticae", "settings": "for Mortality (%): 24 hrs after dipping; for Probability Unit (P + 5): probit of mortality", "source_text": "(§1) Referring to the standard method for determining pest mites, namely, the slide dipping method, recommended by Food and Agriculture Organization of the United Nations (FAO), a double-faced adhesive tape is cut into pieces 2-3 cm long and stuck to one end of a microscope slide, and paper on the adhesive tape is removed with tweezers. Female adult mites with similar sizes, bright body color, and high vitality are picked with a 0# Chinese writing brush, and are stuck to the double-faced adhesive tape (note: the feet, whiskers, and mouthparts of the mites should not be stuck) on their backs, with 4 lines stuck to each piece and 10 mites in each line. The mites are placed and left in a biochemical incubator for 4 hrs at temperature of 25° C. and a relative humidity of approximately 85%, and then are observed with binoculars. […] The agent is diluted 5-7 times with water based on a preliminary test. One end of the slide with the mites is dipped into the agent solution, shaken lightly for 5 s, and then taken out. The mites, as well as the excessive agent solution therearound, are rapidly dried with absorbent paper. The slide is placed and left in the above biochemical incubator. After 24 hrs, the results are checked with the binoculars. The bodies of the mites are lightly touched with the Chinese writing brush, and those without any motion of their feet are considered to be dead. The test is repeated three times at each concentration, and the mites dipped in fresh water are taken as a control. […] An LC50 value is calculated by using SPASS 19.0 data processing software."}, "Panonychus citri": {"tested_on": "Panonychus citri", "assay": "Slide dipping method, miticidal activity against Panonychus citri", "settings": "for Mortality (%): 24 hrs after dipping; for Probability Unit (P + 5): probit of mortality", "source_text": "as §1, with “recommended by the Food and” for “recommended by Food and”, “bright body color and high” for “bright body color, and high”, “biochemical incubator with the temperature of” for “biochemical incubator for 4 hrs at temperature of”, “of approximately 85% for 4 hrs, and then” for “of approximately 85%, and then”, “for 5 s and then” for “for 5 s, and then”, “by using the SPASS 19.0” for “by using SPASS 19.0”"}, "Tetranychus cinnabarinus": {"tested_on": "Tetranychus cinnabarinus", "assay": "Slide dipping method, miticidal activity against Tetranychus cinnabarinus", "settings": "for Mortality (%): 24 hrs after dipping; for Probability Unit (P + 5): probit of mortality", "source_text": "as §1, with “recommended by the Food and” for “recommended by Food and”, “bright body color and high” for “bright body color, and high”, “biochemical incubator with the temperature of” for “biochemical incubator for 4 hrs at temperature of”, “of approximately 85% for 4 hrs, and then” for “of approximately 85%, and then”, “for 5 s and then” for “for 5 s, and then”, “by using the SPASS 19.0” for “by using SPASS 19.0”\nAn LC50 value is calculated by using the SPASS 19.0 data processing software."}, "[1]": {"tested_on": "strawberry red spider mites", "assay": "Field control of strawberry red spider mites", "assay_type": "in vivo", "settings": "for Control effect (%): corrected against fresh water control", "procedure": "Test agents: 20% avermectin spirodiclofen suspension (Hebei Xingbai Agricultural Technology Co., Ltd., diluted 3000 times during use; and the biological mite pesticide BVP10 with the effective protein concentration of 389.5 μg/mL.\nThe test included three treatments, each repeated three times; blocks are randomly permuted; and the agents are applied to […] in each block with protective rows provided around the plants. […] Ten strawberry plants are taken from each block, with one leaf labeled for each plant. The number of red spider mites on both sides of each of the ten leaves are inspected. The red spider mites are directly observed with a hand-held magnifying lens, and the number of all living mites is taken down. The initial population number of the red spider mites is investigated before the application, and a total of three investigations are conducted on Day 1, Day 4, and Day 7 respectively after the application.\nCalculation method of pesticidal effect: the control effect is calculated based on the initial population number of the red spider mites before the application and the number of living red spider mites on each day after the application, and the calculation formula is shown below: The data is analyzed for significance using Duncan's new multiple range method of DPS software."}, "[2]": {"settings": "Dose 19.475 μg/mL, female adult mites"}, "[3]": {"settings": "Dose 38.95 μg/mL, female adult mites"}, "[4]": {"settings": "Dose 77.9 μg/mL, female adult mites"}, "[5]": {"settings": "Dose 389.5 μg/mL, female adult mites"}, "[6]": {"settings": "Day 4 after application, field spray on strawberry leaves"}, "[7]": {"settings": "Day 7 after application, field spray on strawberry leaves"}},
  "data": [
    {"molecule": "BVP10 protein: protein shown in SEQ ID NO:2 for controlling tetranychid mites, prokaryotically expressed in Escherichia coli BL21, about 10 kDa (protein, Sequence for protein prepared by prokaryotic expression, eukaryotic expression, or direct synthesis, based the gene sequence of SEQ ID NO 1) MLKSKIKKIAGAAVIAGALLVSVSPAKAETLPGLIWVMDKYTDAFKFDMFIKNGNEKWVYVYTRLSDGKVDVEEVKCETIYKDRCYVKQ", "values": [
      {"measurement": "Mortality (%)", "setting": "Tetranychus urticae; [2]", "result": 47.2, "unit": "%"},
      {"measurement": "Probability Unit (P + 5)", "setting": "Tetranychus urticae; Dose 19.475 μg/mL", "result": 4.927},
      {"measurement": "Mortality (%)", "setting": "Tetranychus urticae; [3]", "result": 60.6, "unit": "%"},
      {"measurement": "Probability Unit (P + 5)", "setting": "Tetranychus urticae; Dose 38.95 μg/mL", "result": 5.268},
      {"measurement": "Mortality (%)", "setting": "Tetranychus urticae; [4]", "result": 55.9, "unit": "%"},
      {"measurement": "Probability Unit (P + 5)", "setting": "Tetranychus urticae; Dose 77.9 μg/mL", "result": 5.148},
      {"measurement": "Mortality (%)", "setting": "Tetranychus urticae; [5]", "result": 68.4, "unit": "%"},
      {"measurement": "Probability Unit (P + 5)", "setting": "Tetranychus urticae; Dose 389.5 μg/mL", "result": 5.483},
      {"measurement": "Medial Lethal Concentration (LC50, μg/mL)", "setting": "Tetranychus urticae; female adult mites, 24 hrs, regression Y = 4.5286 + 0.3682X (r = 0.8832)", "result": 19.07, "unit": "µg/mL"},
      {"measurement": "Mortality (%)", "setting": "Panonychus citri; [2]", "result": 23.5, "unit": "%"},
      {"measurement": "Probability Unit (P + 5)", "setting": "Panonychus citri; Dose 19.475 μg/mL", "result": 4.276},
      {"measurement": "Mortality (%)", "setting": "Panonychus citri; [3]", "result": 47.1, "unit": "%"},
      {"measurement": "Probability Unit (P + 5)", "setting": "Panonychus citri; Dose 38.95 μg/mL", "result": 4.922},
      {"measurement": "Mortality (%)", "setting": "Panonychus citri; [4]", "result": 63.6, "unit": "%"},
      {"measurement": "Probability Unit (P + 5)", "setting": "Panonychus citri; Dose 77.9 μg/mL", "result": 5.349},
      {"measurement": "Mortality (%)", "setting": "Panonychus citri; [5]", "result": 78.6, "unit": "%"},
      {"measurement": "Probability Unit (P + 5)", "setting": "Panonychus citri; Dose 389.5 μg/mL", "result": 5.793},
      {"measurement": "Medial Lethal Concentration (LC50, μg/mL)", "setting": "Panonychus citri; female adult mites, 24 hrs, regression Y = 3.0472 + 1.1072X (r = 0.9548)", "result": 58.05, "unit": "µg/mL"},
      {"measurement": "Medial Lethal Concentration (LC50, μg/mL)", "setting": "Tetranychus cinnabarinus; 24 hrs, regression Y = 2.3766 + 1.6846X (r = 0.9797)", "result": 36.08, "unit": "µg/mL"},
      {"measurement": "Mortality (%)", "setting": "Tetranychus cinnabarinus; Dose 19.475 μg/mL", "result": 27.8, "unit": "%"},
      {"measurement": "Probability Unit (P + 5)", "setting": "Tetranychus cinnabarinus; Dose 19.475 μg/mL", "result": 4.413},
      {"measurement": "Mortality (%)", "setting": "Tetranychus cinnabarinus; Dose 38.95 μg/mL", "result": 51.4, "unit": "%"},
      {"measurement": "Probability Unit (P + 5)", "setting": "Tetranychus cinnabarinus; Dose 38.95 μg/mL", "result": 5.039},
      {"measurement": "Mortality (%)", "setting": "Tetranychus cinnabarinus; Dose 77.9 μg/mL", "result": 80.0, "unit": "%"},
      {"measurement": "Probability Unit (P + 5)", "setting": "Tetranychus cinnabarinus; Dose 77.9 μg/mL", "result": 5.840},
      {"measurement": "Mortality (%)", "setting": "Tetranychus cinnabarinus; Dose 389.5 μg/mL", "result": 94.7, "unit": "%"},
      {"measurement": "Probability Unit (P + 5)", "setting": "Tetranychus cinnabarinus; Dose 389.5 μg/mL", "result": 6.616},
      {"measurement": "Control effect (%)", "setting": "[1]; Day 1 after application", "result": 79.53, "unit": "%"},
      {"measurement": "Decline rate (%) of living mites", "setting": "[1]; Day 1 after application, field spray on strawberry leaves", "result": 41.14, "unit": "%"},
      {"measurement": "Residual no of mites", "setting": "[1]; Day 1 after application, field spray on strawberry leaves, BVP10 389.5 μg/mL, reference diluted 3000 times", "result": 206},
      {"measurement": "Control effect (%)", "setting": "[1]; Day 4 after application", "result": 83.71, "unit": "%"},
      {"measurement": "Decline rate (%) of living mites", "setting": "[1]; [6]", "result": 33.14, "unit": "%"},
      {"measurement": "Residual number of mites", "setting": "[1]; [6]", "result": 234},
      {"measurement": "Control effect (%)", "setting": "[1]; Day 7 after application", "result": 95.45, "unit": "%"},
      {"measurement": "Decline rate (%) of living mites", "setting": "[1]; [7]", "result": 77.14, "unit": "%"},
      {"measurement": "Residual number of mites", "setting": "[1]; [7]", "result": 80}
    ]}
  ]
}
